Assay results from US20090298769A1 (CLEVELAND CLINIC FOUNDATION, published 2009).

Target: T1, VEGFR-2 of human endothelial cells (HUVEC) (human, UniProt P35968 20-1356)
T1 construct: whole, on cells; Endogenous, detected in cell lysates or by staining; also called VEGF receptor-2
Assay: co-immunoprecipitation (anti-VEGFR-2 IP, anti-integrin β5 blot), HUVEC with or without VEGF

T1 sequence (P35968 20-1356): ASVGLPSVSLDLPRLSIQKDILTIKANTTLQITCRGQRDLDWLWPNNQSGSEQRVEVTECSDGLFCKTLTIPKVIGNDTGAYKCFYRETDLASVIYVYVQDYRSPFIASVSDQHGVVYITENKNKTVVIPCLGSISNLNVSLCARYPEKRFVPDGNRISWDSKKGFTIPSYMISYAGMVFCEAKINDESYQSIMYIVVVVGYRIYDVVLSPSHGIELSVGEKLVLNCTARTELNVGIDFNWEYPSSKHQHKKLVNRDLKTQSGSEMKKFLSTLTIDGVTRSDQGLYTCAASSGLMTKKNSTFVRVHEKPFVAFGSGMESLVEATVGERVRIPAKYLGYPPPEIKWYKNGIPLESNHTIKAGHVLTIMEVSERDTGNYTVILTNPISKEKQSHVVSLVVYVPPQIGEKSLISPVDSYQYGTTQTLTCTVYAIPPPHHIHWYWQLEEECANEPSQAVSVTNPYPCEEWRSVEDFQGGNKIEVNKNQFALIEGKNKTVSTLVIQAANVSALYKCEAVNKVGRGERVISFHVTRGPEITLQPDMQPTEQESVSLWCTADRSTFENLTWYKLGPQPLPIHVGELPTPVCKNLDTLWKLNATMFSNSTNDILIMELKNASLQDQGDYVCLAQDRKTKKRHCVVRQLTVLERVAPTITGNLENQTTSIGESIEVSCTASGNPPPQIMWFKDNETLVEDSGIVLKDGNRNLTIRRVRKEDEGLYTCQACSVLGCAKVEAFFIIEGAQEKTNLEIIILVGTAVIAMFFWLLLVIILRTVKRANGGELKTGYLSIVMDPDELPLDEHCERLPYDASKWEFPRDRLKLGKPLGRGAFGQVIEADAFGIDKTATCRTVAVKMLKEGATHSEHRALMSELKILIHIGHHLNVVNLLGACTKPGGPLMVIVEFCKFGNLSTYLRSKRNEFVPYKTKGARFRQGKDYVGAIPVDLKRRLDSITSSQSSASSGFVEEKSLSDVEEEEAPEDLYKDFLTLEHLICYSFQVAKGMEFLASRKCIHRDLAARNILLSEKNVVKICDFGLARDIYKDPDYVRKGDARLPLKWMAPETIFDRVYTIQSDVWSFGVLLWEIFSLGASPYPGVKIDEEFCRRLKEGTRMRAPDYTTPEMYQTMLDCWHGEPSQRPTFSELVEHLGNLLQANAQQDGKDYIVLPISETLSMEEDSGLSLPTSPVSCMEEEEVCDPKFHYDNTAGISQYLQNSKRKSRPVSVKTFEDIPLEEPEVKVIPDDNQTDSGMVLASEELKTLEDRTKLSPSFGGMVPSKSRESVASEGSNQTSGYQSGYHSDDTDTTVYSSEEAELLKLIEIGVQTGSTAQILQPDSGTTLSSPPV

- binding result: no binding
B1: β5 integrin of HUVEC (receptor, human, UniProt P18084 24-799, looked up)
chain: GLNICTSGSATSCEECLLIHPKCAWCSKEDFGSPRSITSRCDLRANLVKNGCGGEIESPASSFHVLRSLPLSSKGSGSAGWDVIQMTPQEIAVNLRPGDKTTFQLQVRQVEDYPVDLYYLMDLSLSMKDDLDNIRSLGTKLAEEMRKLTSNFRLGFGSFVDKDISPFSYTAPRYQTNPCIGYKLFPNCVPSFGFRHLLPLTDRVDSFNEEVRKQRVSRNRDAPEGGFDAVLQAAVCKEKIGWRKDALHLLVFTTDDVPHIALDGKLGGLVQPHDGQCHLNEANEYTASNQMDYPSLALLGEKLAENNINLIFAVTKNHYMLYKNFTALIPGTTVEILDGDSKNIIQLIINAYNSIRSKVELSVWDQPEDLNLFFTATCQDGVSYPGQRKCEGLKIGDTASFEVSLEARSCPSRHTEHVFALRPVGFRDSLEVGVTYNCTCGCSVGLEPNSARCNGSGTYVCGLCECSPGYLGTRCECQDGENQSVYQNLCREAEGKPLCSGRGDCSCNQCSCFESEFGKIYGPFCECDNFSCARNKGVLCSGHGECHCGECKCHAGYIGDNCNCSTDISTCRGRDGQICSERGHCLCGQCQCTEPGAFGEMCEKCPTCPDACSTKRDCVECLLLHSGKPDNQTCHSLCRDEVITWVDTIVKDDQEAVLCFYKTAKDCVMMFTYVELPSGKSNLTVLREPECGNTPNAMTILLAVVGSILLVGLALLAIWKLLVTIHDRREFAKFQSERSRARYEMASNPLYRKPISTHTVDFTFNKFNKSYNGTVD
notes: whole, on cells; also called integrin β5
